This note sets out measurements from paper PMC6826380, “Overexpression of a Novel Cytochrome P450 Promotes Flavonoid Biosynthesis and Osmotic Stress Tolerance in Transgenic Arabidopsis” (Genes, 2019).

The subject of the data set is T1, C[C@@H]1O[C@@H](OC[C@H]2O[C@@H](Oc3c(-c4ccc(O)c(O)c4)oc4cc(O)cc(O)c4c3=O)[C@H](O)[C@@H](O)[C@@H]2O)[C@H](O)[C@H](O)[C@H]1O.
T1 construct: N-terminal His tag, pET28a in E. coli BL21(DE3), Ni-NTA; forward coding primer starts ATGGCCGACGACTATGGC (MADDYG)
Description: purified protein. It is filed as biochemical, Carthamus tinctorius. The settings on record: range of rutin concentrations; no redox partner or NADPH stated.

Turning to “CtCYP82G24 (Carthamus tinctorius var. tinctorius)”, the Km is given as 5.37 ± 0.123 mM.
